Laboratory results: PMC12416549 (2024)

T1: TNFR1 (Homo sapiens, UniProt P19438)
T1 chain: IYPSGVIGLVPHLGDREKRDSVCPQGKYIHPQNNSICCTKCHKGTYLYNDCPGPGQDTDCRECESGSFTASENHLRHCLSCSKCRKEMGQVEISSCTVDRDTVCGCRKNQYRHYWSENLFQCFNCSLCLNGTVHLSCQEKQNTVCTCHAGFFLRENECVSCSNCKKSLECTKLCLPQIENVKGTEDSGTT


Biological target: T1, TNFR1
Experiment: yeast display SC50

| Binder | apparent Kd (screen) [pM] |
| --- | --- |
| R14F (designed binder) MTLQELLREEALRFAEAEAFRYALELLAEKFPEQKEYLLDLAEEIESQIRSLSGVDVEDVRKFLDKEWAWVKELLAEHPAELAEVEAARAARLAELRAEVEAKVAA | 653 |
| A105R (designed binder) MTLQELLREEALRRAEAEAFRYALELLAEKFPEQKEYLLDLAEEIESQIRSLSGVDVEDVRKFLDKEWAWVKELLAEHPAELAEVEAARAARLAELRAEVEAKVRA | 718 |
| E44L (designed binder) MTLQELLREEALRRAEAEAFRYALELLAEKFPEQKEYLLDLAELIESQIRSLSGVDVEDVRKFLDKEWAWVKELLAEHPAELAEVEAARAARLAELRAEVEAKVAA | 13800 |
| A87R (designed binder) MTLQELLREEALRRAEAEAFRYALELLAEKFPEQKEYLLDLAEEIESQIRSLSGVDVEDVRKFLDKEWAWVKELLAEHPAELAEVERARAARLAELRAEVEAKVAA | 446 |
| E58V (designed binder) MTLQELLREEALRRAEAEAFRYALELLAEKFPEQKEYLLDLAEEIESQIRSLSGVDVVDVRKFLDKEWAWVKELLAEHPAELAEVEAARAARLAELRAEVEAKVAA | 490 |
| Q48I (designed binder) MTLQELLREEALRRAEAEAFRYALELLAEKFPEQKEYLLDLAEEIESIIRSLSGVDVEDVRKFLDKEWAWVKELLAEHPAELAEVEAARAARLAELRAEVEAKVAA | 5840 |
| E81Y (designed binder) MTLQELLREEALRRAEAEAFRYALELLAEKFPEQKEYLLDLAEEIESQIRSLSGVDVEDVRKFLDKEWAWVKELLAEHPAYLAEVEAARAARLAELRAEVEAKVAA | 446 |
| R89L (designed binder) MTLQELLREEALRRAEAEAFRYALELLAEKFPEQKEYLLDLAEEIESQIRSLSGVDVEDVRKFLDKEWAWVKELLAEHPAELAEVEAALAARLAELRAEVEAKVAA | 790 |
| E33K (designed binder) MTLQELLREEALRRAEAEAFRYALELLAEKFPKQKEYLLDLAEEIESQIRSLSGVDVEDVRKFLDKEWAWVKELLAEHPAELAEVEAARAARLAELRAEVEAKVAA | 1050 |
| L52I (designed binder) MTLQELLREEALRRAEAEAFRYALELLAEKFPEQKEYLLDLAEEIESQIRSISGVDVEDVRKFLDKEWAWVKELLAEHPAELAEVEAARAARLAELRAEVEAKVAA | 539 |
| A80N (designed binder) MTLQELLREEALRRAEAEAFRYALELLAEKFPEQKEYLLDLAEEIESQIRSLSGVDVEDVRKFLDKEWAWVKELLAEHPNELAEVEAARAARLAELRAEVEAKVAA | 1270 |
| E5M (designed binder) MTLQMLLREEALRRAEAEAFRYALELLAEKFPEQKEYLLDLAEEIESQIRSLSGVDVEDVRKFLDKEWAWVKELLAEHPAELAEVEAARAARLAELRAEVEAKVAA | 593 |
| G54N (designed binder) MTLQELLREEALRRAEAEAFRYALELLAEKFPEQKEYLLDLAEEIESQIRSLSNVDVEDVRKFLDKEWAWVKELLAEHPAELAEVEAARAARLAELRAEVEAKVAA | 1400 |
| V55C (designed binder) MTLQELLREEALRRAEAEAFRYALELLAEKFPEQKEYLLDLAEEIESQIRSLSGCDVEDVRKFLDKEWAWVKELLAEHPAELAEVEAARAARLAELRAEVEAKVAA | 790 |
| L74E (designed binder) MTLQELLREEALRRAEAEAFRYALELLAEKFPEQKEYLLDLAEEIESQIRSLSGVDVEDVRKFLDKEWAWVKEELAEHPAELAEVEAARAARLAELRAEVEAKVAA | 2480 |
| E67C (designed binder) MTLQELLREEALRRAEAEAFRYALELLAEKFPEQKEYLLDLAEEIESQIRSLSGVDVEDVRKFLDKCWAWVKELLAEHPAELAEVEAARAARLAELRAEVEAKVAA | 5840 |
| A17P (designed binder) MTLQELLREEALRRAEPEAFRYALELLAEKFPEQKEYLLDLAEEIESQIRSLSGVDVEDVRKFLDKEWAWVKELLAEHPAELAEVEAARAARLAELRAEVEAKVAA | 718 |
| A83E (designed binder) MTLQELLREEALRRAEAEAFRYALELLAEKFPEQKEYLLDLAEEIESQIRSLSGVDVEDVRKFLDKEWAWVKELLAEHPAELEEVEAARAARLAELRAEVEAKVAA | 593 |
| S53D (designed binder) MTLQELLREEALRRAEAEAFRYALELLAEKFPEQKEYLLDLAEEIESQIRSLDGVDVEDVRKFLDKEWAWVKELLAEHPAELAEVEAARAARLAELRAEVEAKVAA | 8560 |
| A94I (designed binder) MTLQELLREEALRRAEAEAFRYALELLAEKFPEQKEYLLDLAEEIESQIRSLSGVDVEDVRKFLDKEWAWVKELLAEHPAELAEVEAARAARLIELRAEVEAKVAA | 956 |
| A15K (designed binder) MTLQELLREEALRRKEAEAFRYALELLAEKFPEQKEYLLDLAEEIESQIRSLSGVDVEDVRKFLDKEWAWVKELLAEHPAELAEVEAARAARLAELRAEVEAKVAA | 490 |
| E86M (designed binder) MTLQELLREEALRRAEAEAFRYALELLAEKFPEQKEYLLDLAEEIESQIRSLSGVDVEDVRKFLDKEWAWVKELLAEHPAELAEVMAARAARLAELRAEVEAKVAA | 790 |
| E33Y (designed binder) MTLQELLREEALRRAEAEAFRYALELLAEKFPYQKEYLLDLAEEIESQIRSLSGVDVEDVRKFLDKEWAWVKELLAEHPAELAEVEAARAARLAELRAEVEAKVAA | 539 |

Next, values leading:

| apparent Kd (screen) [pM] | Binder |
| --- | --- |
| 790 | L12A (designed binder) MTLQELLREEAARRAEAEAFRYALELLAEKFPEQKEYLLDLAEEIESQIRSLSGVDVEDVRKFLDKEWAWVKELLAEHPAELAEVEAARAARLAELRAEVEAKVAA |
| 956 | Y22I (designed binder) MTLQELLREEALRRAEAEAFRIALELLAEKFPEQKEYLLDLAEEIESQIRSLSGVDVEDVRKFLDKEWAWVKELLAEHPAELAEVEAARAARLAELRAEVEAKVAA |
| 956 | R61C (designed binder) MTLQELLREEALRRAEAEAFRYALELLAEKFPEQKEYLLDLAEEIESQIRSLSGVDVEDVCKFLDKEWAWVKELLAEHPAELAEVEAARAARLAELRAEVEAKVAA |
| 2250 | L3H (designed binder) MTHQELLREEALRRAEAEAFRYALELLAEKFPEQKEYLLDLAEEIESQIRSLSGVDVEDVRKFLDKEWAWVKELLAEHPAELAEVEAARAARLAELRAEVEAKVAA |
| 446 | H78W (designed binder) MTLQELLREEALRRAEAEAFRYALELLAEKFPEQKEYLLDLAEEIESQIRSLSGVDVEDVRKFLDKEWAWVKELLAEWPAELAEVEAARAARLAELRAEVEAKVAA |
| 718 | K35Q (designed binder) MTLQELLREEALRRAEAEAFRYALELLAEKFPEQQEYLLDLAEEIESQIRSLSGVDVEDVRKFLDKEWAWVKELLAEHPAELAEVEAARAARLAELRAEVEAKVAA |
| 593 | K66M (designed binder) MTLQELLREEALRRAEAEAFRYALELLAEKFPEQKEYLLDLAEEIESQIRSLSGVDVEDVRKFLDMEWAWVKELLAEHPAELAEVEAARAARLAELRAEVEAKVAA |
| 653 | Q34E (designed binder) MTLQELLREEALRRAEAEAFRYALELLAEKFPEEKEYLLDLAEEIESQIRSLSGVDVEDVRKFLDKEWAWVKELLAEHPAELAEVEAARAARLAELRAEVEAKVAA |
| 5840 | L82D (designed binder) MTLQELLREEALRRAEAEAFRYALELLAEKFPEQKEYLLDLAEEIESQIRSLSGVDVEDVRKFLDKEWAWVKELLAEHPAEDAEVEAARAARLAELRAEVEAKVAA |
| 2480 | Y37F (designed binder) MTLQELLREEALRRAEAEAFRYALELLAEKFPEQKEFLLDLAEEIESQIRSLSGVDVEDVRKFLDKEWAWVKELLAEHPAELAEVEAARAARLAELRAEVEAKVAA |
| 446 | A90K (designed binder) MTLQELLREEALRRAEAEAFRYALELLAEKFPEQKEYLLDLAEEIESQIRSLSGVDVEDVRKFLDKEWAWVKELLAEHPAELAEVEAARKARLAELRAEVEAKVAA |
| 12500 | G54K (designed binder) MTLQELLREEALRRAEAEAFRYALELLAEKFPEQKEYLLDLAEEIESQIRSLSKVDVEDVRKFLDKEWAWVKELLAEHPAELAEVEAARAARLAELRAEVEAKVAA |
